Experimental data taken from US10941208B2, “Anti-MUC16 antibodies” (Regeneron Pharmaceuticals, Inc., priority 2016, dated 2021).

Experiments:
[1] = biological target: T1, soluble monomeric human MUC16 (hMUC16.mmh, last five SEA domains, SEQ ID: 1902) (Homo sapiens, UniProt Q8WXI7); assay: Surface plasmon resonance (BIACORE) binding to hMUC16 fragment at 25° C.; set-up: key to ka / kd / KD / t 1/2: NB: No binding; conditions: for ka / kd / KD / t 1/2: 25° C.; for binding to soluble truncated human MUC16 protein via surface plasmon resonance (in words): truncated format encompassing the last five SEA domains
T1 construct: mmh (myc-myc-hexahistidine)
Experimental: Antibodies were captured onto a CM4 or CM5 BIACORE sensor surface (GE Healthcare Life Sciences) derivatized via amine coupling with a monoclonal anti-human Fc antibody (GE, # BR-1008-39) or a monoclonal goat anti-mouse Fc antibody (GE, # BR-1008-38). Various concentrations of soluble monomeric human MUC16, in a truncated format encompassing the last five SEA domains of Mucin-16 (hMUC16.mmh, or MUC16 “nub”, SEQ ID: 1902) were injected over the anti-MUC16-antibody captured surface at a flow rate of 50 uL/minute (BIACORE T 200) or 30 uL/minute (BIACORE 4000). Antibody-reagent association was monitored for 4 min and the dissociation was monitored for 6-10 min. All binding studies were performed in HBS-ET buffer (0.01M HEPES pH 7.4, 0.15M NaCl, 0.05% v/v Surfactant P20).
Kinetic association (ka) and dissociation (kd) rate constants were determined by fitting the real-time sensorgrams to a 1:1 binding model using Scrubber 2.0c curve fitting software. Binding dissociation equilibrium constants (KD) and dissociative half-lives (t½) were calculated from the kinetic rate constants as: […]

[2] = biological target: T2, hMUC16 endogenously expressed on OVCAR-3 cell line (Homo sapiens, UniProt Q8WXI7); assay: Electrochemiluminescence (MSD) cell binding, OVCAR-3 vs SK-OV-3; conditions: cell-based binding assay
T2 construct: OVCAR-3 cells endogenously express MUC-16; endogenous in cells; host or cells: OVCAR-3 (also luciferase-transduced OVCAR3-Luc)
Experimental: The ability of anti-MUC16 antibodies to bind specifically to endogenously expressing MUC16 on the human ovarian carcinoma cell line (OVCAR-3) was evaluated via an electrochemiluminescence based detection assay (Meso Scale Discovery (MSD), Rockville, Md.). […] Detached cells were then washed once in 1×PBS supplemented with Ca^2+/Mg^2+ and counted (Cellometer Auto T4 cell counter, Nexcelom Bioscience, Lawrence, Mass.). Approximately 1.0×10^4 cells were plated in MULTI-ARRAY 96-well carbon electrode plates (MSD) and incubated for 1 h at 37° C. […] Next, serial dilutions of anti-MUC16 or control antibodies (0.85 pM-50 nM) and no-antibody buffer controls were added to the plate-bound cells and incubated for 1 h at room temperature (RT). […] Plate-bound antibodies were detected with a SULFO-TAG™-conjugated anti-human kappa light chain antibody (Regeneron) or a SULFO-TAG™-conjugated anti-mouse IgG antibody (Jackson Immunoresearch, West Grove, Pa.) for 1 h at RT. Post-wash, plates were developed with Read Buffer (MSD) according to manufacturer's protocol and luminescent signals were recorded with a SECTOR Imager 6000 (MSD) instrument.
Luminescence intensity, measured in relative light units (RLU), for the two cell lines was recorded to indicate the binding intensity of each antibody.

[3] = Human Fc anti-MUC16 antibodies (H1H), Table 5B
[4] = Hybridoma anti-MUC16 antibodies (H1M, H2M, H3M), Table 5A

T1 sequence (Q8WXI7 with tags, fused parts or gaps): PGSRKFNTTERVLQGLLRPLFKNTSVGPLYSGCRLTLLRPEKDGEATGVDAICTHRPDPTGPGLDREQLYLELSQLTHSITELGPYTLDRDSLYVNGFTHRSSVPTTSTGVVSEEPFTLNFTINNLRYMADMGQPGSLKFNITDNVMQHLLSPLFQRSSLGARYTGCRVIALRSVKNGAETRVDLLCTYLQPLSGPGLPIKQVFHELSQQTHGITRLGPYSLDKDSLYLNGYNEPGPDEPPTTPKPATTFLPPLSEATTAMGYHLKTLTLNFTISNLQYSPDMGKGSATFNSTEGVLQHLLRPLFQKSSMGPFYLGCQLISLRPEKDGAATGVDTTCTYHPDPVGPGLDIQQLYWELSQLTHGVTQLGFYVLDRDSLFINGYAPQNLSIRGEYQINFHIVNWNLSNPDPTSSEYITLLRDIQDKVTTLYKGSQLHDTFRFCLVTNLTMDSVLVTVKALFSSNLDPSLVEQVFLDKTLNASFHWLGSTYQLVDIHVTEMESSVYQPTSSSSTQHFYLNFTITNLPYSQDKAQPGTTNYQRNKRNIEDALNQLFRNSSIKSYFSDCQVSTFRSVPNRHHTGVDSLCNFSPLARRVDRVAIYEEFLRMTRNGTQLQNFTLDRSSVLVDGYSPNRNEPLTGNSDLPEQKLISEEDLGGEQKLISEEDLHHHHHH

B1: H1H8755P: anti-MUC16 antibody, human IgG1 Fc; HCVR/LCVR SEQ ID NOs: 2/10 (antibody, V domains shown)
VH: EVQLVESGGGLVQPGRSLRLSCAASGFTFNDYAMHWVRQSPGKGLEWVSGIDWNGGSIDYADSVKGRFTISRDTAKNSLYLQMNSLKVEDTALYYCAKDIGHWNYIGGMDVWGQGTTVTVSS
VL: DIQMTQSPSSLSASVGDRVTITCRASQSINIYLNWYQQKPGKAPKFLIYAASSLQTGVPSRFSGSGSGTDFTLTISSLEPEDFATYYCQHSYSTPPITFGQGTRLEIK
[1]; [3]
  ka: 522000 M⁻¹ s⁻¹
  kd: 0.000149 s⁻¹

B2: H1M9528N: anti-MUC16 hybridoma antibody, mIgG1; HCVR/LCVR SEQ ID NOs: 234/242 (antibody, V domains shown)
VH: QMQLQESGPGLVKPSETLSLTCTVSGGSISSYYWNWIRQPPGKGLEWIGYIYYSGNNFNPSLKSRVTISVDTSKNQFSLKLSSVTAADTAVYYCARAFHWNYEFDYWGQGTLVTVSS
VL: EIVLTQSPGTLSLSPGERATLSCRASQSVSNNYLAWYQQKPGQAPRLLLYGASSRTTDIPDRFSGSGSGTDFTLTISRLEPEDFAVYYCQQYDNSPLTFGGGTKVEIR
[2]
  specific binding to endogenous human MUC16 expressed on OVCAR-3 cells (in words): specific binding
[1]; [4]
  KD: NB
  ka: NB
  kd: NB
  t 1/2: NB
[1]
  binding to soluble truncated human MUC16 protein via surface plasmon resonance (in words): no binding

B3: H1H8808P: anti-MUC16 antibody, human IgG1 Fc; HCVR/LCVR SEQ ID NOs: 130/138 (antibody, V domains shown)
VH: QVQLVESGGGVVQPGRSLRLSCVASGFTFSNYGIHWVRQAPGKGLEWVAVISDDGSFKFYADSVKGRFTISRDNSKNTLYLQMNSLRVEDSAVYHCAKWQHNWNDGGFDYWGQGTLVTVSS
VL: EIVLTQSPDTLSLSPGERATLSCRASQSLSSNYLAWYRQKPGQAPRLLIYGISSRATGIPDRFSGSGSGTDFTLTISRLEPEDFAVYYCQQYGSSPWTFGQGTKVEIK
[1]; [3]
  ka: 4120 M⁻¹ s⁻¹
  kd: 0.000216 s⁻¹

B4: H2M7135N: anti-MUC16 hybridoma antibody, mIgG2; HCVR/LCVR SEQ ID NOs: 298/306 (antibody, V domains shown)
VH: EVQLVESGGGLVQAGGSLRLSCAASGFTFSYHEMNWVRQAPGKGLEWVSYIGSRGTTKHYADPVKGRFTISRDNAKNSLYLQMNSLRAEDTAVYYCASEVGSILGYSMDVWGQGTTVTVSS
VL: DIQMTQSPSSLSASVGDRVTITCRASQSVSRYLNWCQQKPGKAPKLLTYAASSLQSGVPSRFSGSGSGTDFTLTISSLQPEDFAAYFCQQSYSTPPITFGQGTRLEIK
[1]; [4]
  ka: 51000 M⁻¹ s⁻¹
  kd: 0.000218 s⁻¹

B5: H1H8783P: anti-MUC16 antibody, human IgG1 Fc; HCVR/LCVR SEQ ID NOs: 50/58 (antibody, V domains shown)
VH: QVQLVESGGGVVQPGRSLRLSCAASGFTFSDHAMHWVRQAPGKGLEWVAVISYHGTDKQYGDSVKGRFTISRDNSKNALYLQMNSLRPEDTAMYYCAKDGYDFWNAYSLFDYWGQGTLVTVSS
VL: DIQMTQSPSSLSASVGDRVTITCRASQSISNYLNWYQQKPGKAPKLLIYTASSLLSGVPSRFSGSGSGTDFTLTISSLQPEDFATYYCQQSYSTPPITFGQGTRLEIK
[1]; [3]
  ka: 174000 M⁻¹ s⁻¹
  kd: 0.000107 s⁻¹

B6: H1H8770P: anti-MUC16 antibody, human IgG1 Fc; HCVR/LCVR SEQ ID NOs: 34/42 (antibody, V domains shown)
VH: QVQLVESGGGVVQPGRSLRLSCAASGFTFSDHGMHWVRQAPGKGLEWVAVISYHGSNKHYADSVKGRFTISRDNSKNALYLQMNSLRPEDTAMYYCAKDGYDFWNGYSLFDYWGQGTLVTVSS
VL: DIQMTQSPSSLSASVGDRVTITCRASQSISNYLNWYQQKPGKAPKLLIYTASNLLSGVPSRFSGSGSGTDFTLTISSLQPEDFATYYCQQSYSTPPITFGQGTKLEIK
[1]; [3]
  ka: 247000 M⁻¹ s⁻¹
  kd: 0.000308 s⁻¹

B7: H3M9529N: anti-MUC16 hybridoma antibody, mIgG3; HCVR/LCVR SEQ ID NOs: 378/386 (antibody, V domains shown)
VH: QVQLQQWGAGLLKPSETLSLTCAVYGGSFSGFYWSWIRQPPGKGLEWIGEINHSGSAKYNPSLKNRVIISIDTSKNQFSLKLDSVTAADTAVYNCARQGWNFAIFDYWGQGTLVDVSS
VL: DIVMTQSPDSLAVSLGGRATINCKSSQSVLHSSYNKDHLAWYQQRPGQPPKLLIYWASTRESGVPDRFSGSGSGTDFTLTISSLQAEDVAVYYCQQYNILPPTFGQGTRVEIK
[2]
  specific binding to endogenous human MUC16 expressed on OVCAR-3 cells (in words): specific binding
[1]; [4]
  KD: NB
  ka: NB
  kd: NB
  t 1/2: NB
[1]
  binding to soluble truncated human MUC16 protein via surface plasmon resonance (in words): no binding
